# Measurements as given in the supplement of paper PMC10567573.
# B1: INTS3 (parent)
# chain: DLNSKGKKREFRFHPIKETVVEEP
# Variants of: B1
# Experiment: protein stability index of a GFP-peptide fusion (GPS, HEK-293T) (PSI 1-6); higher = more stable
# Details: c terminus: a fixed tail appended
# 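Note: lentivirally expressed fusions sorted by FACS into six bins by GFP to DsRed ratio, PSI derived from sequencing read proportions per bin multiplied by bin number.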
row,Variant,protein stability index
1,DLNSKGEKREFRFHPIKETVVEEP,3.37
2,DLNSKGIKREFRFHPIKETVVEEP,2.15
3,DLNSKGRKREFRFHPIKETVVEEP,2.37
4,DLNSKGMKREFRFHPIKETVVEEP,2.25
5,DLNSKGYKREFRFHPIKETVVEEP,1.94
6,DLNSKGPKREFRFHPIKETVVEEP,1.94
7,DLNSKGNKREFRFHPIKETVVEEP,2.23
8,DLNSKGTKREFRFHPIKETVVEEP,2.79
9,DLNSKGWKREFRFHPIKETVVEEP,2.58
10,DLNSKGVKREFRFHPIKETVVEEP,2.54
11,DLNSKGLKREFRFHPIKETVVEEP,1.62
12,DLNSKGSKREFRFHPIKETVVEEP,2.48
13,DLNSKGAKREFRFHPIKETVVEEP,2.57
14,DLNSKGHKREFRFHPIKETVVEEP,2.35
15,DLNSKGGKREFRFHPIKETVVEEP,2.28
16,DLNSKGDKREFRFHPIKETVVEEP,3.35
17,DLNSKGFKREFRFHPIKETVVEEP,1.72
18,DLNSKGCKREFRFHPIKETVVEEP,1.86
19,DLNSKGQKREFRFHPIKETVVEEP,2.54
20,DLNSKGKKREFRFCPIKETVVEEP,3.36
21,DLNSKGKKREFRFDPIKETVVEEP,4.59
22,DLNSKGKKREFRFAPIKETVVEEP,3.83
23,DLNNKGKKREFRFHPIKETVVEEP,1.99
24,DLNKKGKKREFRFHPIKETVVEEP,2.08

row,Variant,protein stability index
1,DLNHKGKKREFRFHPIKETVVEEP,2.24
2,DLNLKGKKREFRFHPIKETVVEEP,2
3,DLNQKGKKREFRFHPIKETVVEEP,1.88
4,DLNYKGKKREFRFHPIKETVVEEP,2.24
5,DLNIKGKKREFRFHPIKETVVEEP,2.12
6,DLNVKGKKREFRFHPIKETVVEEP,2.71
7,DLNMKGKKREFRFHPIKETVVEEP,2.03
8,DLNWKGKKREFRFHPIKETVVEEP,1.92
9,DLNGKGKKREFRFHPIKETVVEEP,2.13
10,DLNTKGKKREFRFHPIKETVVEEP,2.49
11,DLNPKGKKREFRFHPIKETVVEEP,2.41
12,DLNRKGKKREFRFHPIKETVVEEP,2.23
13,DLNSKGKKSEFRFHPIKETVVEEP,2.53
14,DLNSKGKKLEFRFHPIKETVVEEP,1.78
15,DLNSKGKKFEFRFHPIKETVVEEP,1.65
16,DLNSKGKKNEFRFHPIKETVVEEP,2.49
17,DLNSKGKKPEFRFHPIKETVVEEP,2.34
18,DLNSKGKKHEFRFHPIKETVVEEP,1.79
19,DLNSKGKKCEFRFHPIKETVVEEP,2.31
20,DLNSKGKKDEFRFHPIKETVVEEP,4.09
21,DLNSKGKKQEFRFHPIKETVVEEP,2.83
22,DLNSKGKKYEFRFHPIKETVVEEP,2.31
23,DLNSKGKKWEFRFHPIKETVVEEP,2.21
24,DLNSKGKKMEFRFHPIKETVVEEP,1.78

row,Variant,protein stability index
1,DLNSKGKKIEFRFHPIKETVVEEP,2.35
2,DLNSKGKKVEFRFHPIKETVVEEP,2.37
3,DLNSKGKKAEFRFHPIKETVVEEP,2.87
4,DLNSKGKKGEFRFHPIKETVVEEP,2.41
5,DLNSKGKKTEFRFHPIKETVVEEP,2.56
6,DLNSKGKKKEFRFHPIKETVVEEP,3.07
7,DLNSKGKKEEFRFHPIKETVVEEP,3.73
8,DLNSKGKWREFRFHPIKETVVEEP,2.27
9,DLNSKGKNREFRFHPIKETVVEEP,2.54
10,DLNSKGKIREFRFHPIKETVVEEP,2.24
11,DLNSKGKSREFRFHPIKETVVEEP,2.23
12,DLNSKGKPREFRFHPIKETVVEEP,1.94
13,DLNSKGKHREFRFHPIKETVVEEP,2
14,DLNSKGKEREFRFHPIKETVVEEP,2.93
15,DLNSKGKVREFRFHPIKETVVEEP,1.73
16,DLNSKGKGREFRFHPIKETVVEEP,2.08
17,DLNSKGKTREFRFHPIKETVVEEP,2.36
18,DLNSKGKFREFRFHPIKETVVEEP,2.09
19,DLNSKGKCREFRFHPIKETVVEEP,1.98
20,DLNSKGKLREFRFHPIKETVVEEP,1.96
21,DLNSKGKMREFRFHPIKETVVEEP,1.93
22,DLNSKGKYREFRFHPIKETVVEEP,2.27
23,DLNSKGKDREFRFHPIKETVVEEP,3.35
24,DLNSKGKRREFRFHPIKETVVEEP,1.52

row,Variant,protein stability index
1,DLNSKGKAREFRFHPIKETVVEEP,1.74
2,DLNSKGKQREFRFHPIKETVVEEP,2.77
3,DLNSVGKKREFRFHPIKETVVEEP,2.76
4,DLNSYGKKREFRFHPIKETVVEEP,2.26
5,DLNSAGKKREFRFHPIKETVVEEP,2.43
6,DLNSIGKKREFRFHPIKETVVEEP,2.32
7,DLNSPGKKREFRFHPIKETVVEEP,2.69
8,DLNSMGKKREFRFHPIKETVVEEP,2.05
9,DLNSWGKKREFRFHPIKETVVEEP,2.32
10,DLNSLGKKREFRFHPIKETVVEEP,2.07
11,DLNSGGKKREFRFHPIKETVVEEP,2.54
12,DLNSFGKKREFRFHPIKETVVEEP,1.88
13,DLNSCGKKREFRFHPIKETVVEEP,2.05
14,DLNSEGKKREFRFHPIKETVVEEP,2.88
15,DLNSRGKKREFRFHPIKETVVEEP,2.25
16,DLNSSGKKREFRFHPIKETVVEEP,2.35
17,DLNSQGKKREFRFHPIKETVVEEP,2.44
18,DLNSHGKKREFRFHPIKETVVEEP,2.48
19,DLNSDGKKREFRFHPIKETVVEEP,3.04
20,DLNSNGKKREFRFHPIKETVVEEP,2.56
21,DLNSTGKKREFRFHPIKETVVEEP,2.39
22,DLNSKGKKREQRFHPIKETVVEEP,4.11
